Assay results: the nanobody polyreactivity screen of Harvey et al. (2022)

assay: yeast display, Sf9 membrane polyspecificity reagent, FACS + sequencing; frameworks hold sequencing errors
In short: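 A nanobody's polyreactivity label depends on the gate it was sorted from. Yeast display cells were stained with 10% biotinylated, detergent-solubilized Sf9 membrane reagent for 1 hour at 4 °C, enriched on streptavidin microbeads and sorted by FACS. The low and high (top ~1%) gates were set on anti-HA fluorescence for expression and streptavidin fluorescence for reagent binding.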

Sequence | polyreactivity (PSR sort gate)
QVQLVESGGGLVQAGGSLRLSCAASGSTFVSYAMGWYRQEPGKERELVATISQSGGSTSYADSVKGRFTISRDNAKNTVYFQMNCRKPEDTAVYNCAARLRAPHRRSYNYWGQGTQVTVSS | high polyreactivity
QVQLVESGGGLVQAGGSLRLSCAASGSTFVTNDMGWYRQAPGKERDLVADISWSGGDTYYADSVKGRFTISRDNAKNTVYLQMNSLKPEDTAVYYCAARPDQGLAYSPLPWYNYWGQGTQVTVSS | low polyreactivity
QVQLVESGGGLVQAGGSLRLSCAASGSTFVTNDMGWYRQAPGKESELVAAISSGTSTNYADSVKGRFTISRDNAKNTVYLQMNSLKPEDTAVYYCAADSLKRYDYWGQGTQVTVSS | low polyreactivity
QVQLVESGGGLVQAGGSLRLSCAASGSTFVTYAKGWYRQAPGKERELVAAITSGGSTNYADSVKGRFTISRDNAKNTVYLQMNCLKPEDTEVYYCAARYYGAYGKQPRARYGYWGQGTQVTVSS | high polyreactivity
QVQLVESGGGLVQAGGSLRLSCAASGSTFVVNAMGWYRQAPGKEREFVAAITWNGGSTYADSVKGRFTISRDNAKNTVYLQMNSLKPEDTAVYYCSADLSYWDDFDYWGQGTQVTVSS | low polyreactivity
QVQLVESGGGLVQAGGSLRLSCAASGSTFVVNAMGWYRQAPGKERELVAAITLSTGSTYYADSVKGRFTISRDNAKNTVYLQMNSLKPEDTAVYYCNTEIYVDIISDYGYWGQGTEVTVSS | low polyreactivity
QVQLVESGGGLVQAGGSLRLSCAASGSTFVVNAMGWYRQAPGKERELVAAITQSGGSTFYADSVKGRFTISRDNAKNTVYLQMNSLKPEETAVYYWGHGTQVTVSS | low polyreactivity
QVQLVESGGGLVQAGGSLRLSCAASGSTFVVNTMGWYRQAPGKERELVAAITRRTTSTYYADSVKGRFTISRDNAKNTVYLQMNSLKPEDTAVYYCAAERRHYSTTYYYWGQGTQVTVSS | high polyreactivity
QVQLVESGGGLVQAGGSLRLSCAASGSTFVWYAMGWYRQAPGKEREFVAAITSDGGSTYYADSVKGRFTISRDNAKNTVYLQLNSLKPEDTAVYYCAADYYSLASGWYYYWGQGTQVTVSS | high polyreactivity
QVQLVESGGGLVQAGGSLRLSCAASGSTFVWYAMGWYRQAPGKEREFVATISWSGDSTYYADSVKGRFTISRDNAKNTVYLQMNSLKPEDTAVYYCATAVYLVIFEYDYWGQGSQVTVSS | low polyreactivity
QVQLVESGGGLVQAGGSLRLSCAASGSTFVWYGMGWYRQAPGKEREFVAAISTSGGRTYYADSVKGRFTISRDNAKNTVYLQMNSLKPEDTAVYYCATRPYFTYRWYDYWGQGTQVTVSS | high polyreactivity
QVQLVESGGGLVQAGGSLRLSCAASGSTFVYNAMGWYRQAPGKERELVAAISRRGGSTYYADSVKGRFTISRDNAKNTVYLQMNSLKPEDTAVYYCATDRVQDSYYWGQGTQVTVSS | high polyreactivity
QVQLVESGGGLVQAGGSLRLSCAASGSTFVYNAMGWYRQAPGKERELVAAISTGGSTYYADSVKGRFTISRDNAKNTVYLQMNSLKPEDNAVYYCAAKQRTTLYDYWGQGTQVTVSS | high polyreactivity
QVQLVESGGGLVQAGGSLRLSCAASGSTFVYNTMGWYRQAPGKERELVASISSDGNTYYADSVKGRFTISRDNAKNTVYLQMNSLKPEDTAVYYCAARYYYDWRFVGYDYWGQGTQVTVSS | low polyreactivity
QVQLVESGGGLVQAGGSLRLSCAASGSTFVYYAMGWSRQAPGKERELVAAIKRSGTRTYYADSVKGRFTISRDNAKNTVYLQMNSLKPEDTAVYYCANAVQGKYGYWGQGTQVTVSS | high polyreactivity
QVQLVESGGGLVQAGGSLRLSCAASGSTFVYYAMGWYRQAPGKERELVAAISTSAGSTYYADSVKGRFTISRDNAKNTVYLQMNSLKPEDTAVYYCAASRKRRRYGSISGGYWGQGTQVTVSS | high polyreactivity
QVQLVESGGGLVQAGGSLRLSCAASGSTFVYYAMGWYRQAPGKERELVAAITGSVDSTYYADSVKGRFTISRDNAKNTVYLQMNSLNPEDTAVYYCAAVTYSTYWGQGTQVTVSS | low polyreactivity
QVQLVESGGGLVQAGGSLRLSCAASGSTFVYYAMGWYRQAPGKERELVAAITSGDSTYYADSVKGRFTISRDNAKNTVYLQMNSLKPEDTAVYYCAKRGGYKWIYGYWGQGTQVTVSS | low polyreactivity
QVQLVESGGGLVQAGGSLRLSCAASGSTFVYYAMGWYRQAPGKETEFVAAISISSGSTYYADSVKGRFTISRDNAKNTVYLQMNSLKPEDTAVYYCAVDWFLGGYDDLDYWGQGTQVTVSS | low polyreactivity
QVQLVESGGGLVQAGGSLRLSCAASGSTFWANALGWYRQAPGKERELVAGITWNAGSTYYADSVKGRFTISRDNAKNTVYLQMNSLKPEDTGVYYCAAYYHFQGWGPGYNSWGQGTQVTVSS | low polyreactivity
QVQLVESGGGLVQAGGSLRLSCAASGSTFWANAMGWYRQAPGKEREIVATISWSDGSTYYAASVKGRFTISRDNAKNTVYLQRNSLNPEDTAVYYCASDVVRFFTYKYDDWGQGTQVTVSS | low polyreactivity
QVQLVESGGGLVQAGGSLRLSCAASGSTFWANAMGWYRQAPGKERELVAAITTSGASTYYADSVKGRFTISRDNAKNTVYLQMNSLKPEDTAVYYCAADYDSYYWYNYWGQGTQVTVSS | low polyreactivity

Sequence | polyreactivity (PSR sort gate)
QVQLVESGGGLVQAGGSLRLSCAASGSTFWEYAMGWYRQGPGTERELVAAISSSGGSTYYADSVKGRFTISRDNAKNTVYLQMNSLKPEDTAVYYCAARYSWRRAGYYYWGQGTQVTVSS | high polyreactivity
QVQLVESGGGLVQAGGSLRLSCAASGSTFWFNAMGWYRQAPGKERELVAAISSTGSTNYADSVKGRFTISRDNSKNTVYLQMNSLKPEDTAVYYCATQEGPHKLDPRGYYWGQGTQVTVSS | low polyreactivity
QVQLVESGGGLVQAGGSLRLSCAASGSTFWFNGMGWYRQAPGKERELVAVITFSTGSTSYADSVKGRCTISRDDAKNTVYLQMNSLKPEDTAVYYCAAEYVIYYWFEWLDLDYWGQGTQVTVSS | high polyreactivity
QVQLVESGGGLVQAGGSLRLSCAASGSTFWFYTMGWYRQAPGKERELVATITSGGSTNYADSVKGRFTISRDNAKNTVYLQMNSLKPEDTAVYYCAASSVLTNHDYWGQGTQVTVSS | low polyreactivity
QVQLVESGGGLVQAGGSLRLSCAASGSTFWINAMGWYRQAPGKERELVADISHSAGNTYYADSVKGRFTISRDNAKNTVYLQMNSLKPEDTAVYYCAARRWGVRSGDYYWGQGTQVTVSS | low polyreactivity
QVQLVESGGGLVQAGGSLRLSCAASGSTFWKYVMGWYRQAPGKERELVAAIDTGASTNYADSVKGRFTISRDNAKYTVYLQMNSLKPEDTAVYFCNAELWYGPDELTGDYWGQGTQVTVSS | low polyreactivity
QVQLVESGGGLVQAGGSLRLSCAASGSTFWLYAMGWYRQAPGKERELVAAIRSGDRTNYADSVKGRFTISRDNAKNTVYLQMNSLKPEDTAVYYCAAVAYLNWTPHYYWGQGTQVTVSS | low polyreactivity
QVQLVESGGGLVQAGGSLRLSCAASGSTFWPYAMGWYRQAPGKERELVAAISSSGGSTYYADSVKGRFTISRDNAKNTVYLQMNSLKPEDTAVYYCNKDYHRPYGGGSKGDYWGQGTLVTVSS | low polyreactivity
QVQLVESGGGLVQAGGSLRLSCAASGSTFWPYAMGWYRQAPGKERELVARINSGGNTNYADSVKGRFTISRDNAKNTVYLQMNSLKPEDTAVYYCAVRSLYEPRVYYRWVVGDGNYWGQGTQLTVSS | low polyreactivity
QVQLVESGGGLVQAGGSLRLSCAASGSTFWPYAMGWYRQAPGKEREMVAAITWRGGRTYYADTVKGRFTISRDNAQNTVYLQMNSLKPEDTAVSYCNTGPWSRSWSQKYEYWGQGTQVTVSS | high polyreactivity
QVQLVESGGGLVQAGGSLRLSCAASGSTFWPYTMGWYSQAPGKERELVAAISLSGGSTYYADSVKGRFTISRDIAKNTVYLQMNSLKPEDTAVYYCAAEGGYQNWHYLYDYWGQGTQVTVSS | low polyreactivity
QVQLVESGGGLVQAGGSLRLSCAASGSTFWSYTMGWYRPAPGKERELVARIRTTGGSTYADSVKGRFTISRDNAKNTVYLQMNSLKPEDTAVYDCAKEGWLRYYPWYGGDYWGQGTLVTVSS | high polyreactivity
QVQLVESGGGLVQAGGSLRLSCAASGSTFWTNAMGWYRQAPGKERELVAGITDTDNHELRRLCEGRFTISRDNAKNTVYVQMNSLKPEDTAVYYCNADDTYYPLGGITGYDYWGQGTQVTVSS | low polyreactivity
QVQLVESGGGLVQAGGSLRLSCAASGSTFWVYTMGWYRQAPGKEREFVAAISSGVGSTHYADSVKGRFTLSRDNAKNTVYLNMNSLKPEDTAVYYCAAESYYVYLGWLEYWGQGTQVTVSS | high polyreactivity
QVQLVESGGGLVQAGGSLRLSCAASGSTFWWYAMGWYRQAPGKERELVATISWSTGSTYYADSVKGRFTISRDNAKNTVYLQMNSLKPEDTAVYYCNARIFYLFPGNSWSSSDYDYWGQGTQVTVSS | low polyreactivity
QVQLVESGGGLVQAGGSLRLSCAASGSTFWYNAMGWYRPAPGKERELVAAITWSGGSTYYADSVKGRFTISRDNAKNTVYLQMNSLKPEDTAVYYCAADHSAYSVFSGYKYGYWGQGTQVTVSS | low polyreactivity
QVQLVESGGGLVQAGGSLRLSCAASGSTFWYNGMGWYRQAPGKERELVAAINWSGDSTYYADSVKGRFTISRDNAKNTVYLQMNSLKPEDTAVFYCAGGYYTYSRRSSFFVAYGYWGLGTQVTVSS | low polyreactivity
QVQLVESGGGLVQAGGSLRLSCAASGSTFWYSDMGWYRQARGKDRELVAAISGSGGRTYYADSVKGRFTISRDNAKNTVYIQMNSLKPEDTAVYYCAADDYWSADFKYNYWGQGTQVTVSS | low polyreactivity
QVQLVESGGGLVQAGGSLRLSCAASGSTFWYYAMGWYRQAPGKERELVAAITSSGSTYYADSVKGRFTISRDNAKNTVYLQMNRLKPEDTAVYYCAAEQWYCYGSYDYWGQVTQVTVSS | high polyreactivity
QVQLVESGGGLVQAGGSLRLSCAASGSTFWYYAMGWYRQAPGKERELVAAITTGGDTTNYADSVKGRFTISRDNAKNNVYLQMNSLKPADTAVYYCARDTGYDLIVLPDDSWGQGTQVTVSS | low polyreactivity
QVQLVESGGGLVQAGGSLRLSCAASGSTFYANAMGWYRQAPGKERELVAAISWRGGSTYYADSVKGRFTISRDNAKNTVYLQMNSLKPEDTAVYYCNRVQRYIRHGDYWGQGTQVTVSS | high polyreactivity
